Patent US8536118B2, “Methods and compositions for modulating hyperstabilized c-met” (Genentech, Inc., priority 2005, dated 2013)

Key:
Met receptor = Met receptor (Homo sapiens, UniProt P08581, DEL964-1010); assay: Met receptor inhibition in serum-starved, rhuHGF-stimulated cells, immunoblot with infrared quantification; assay type: cell-based; conditions: H596 cells (Met exon 14 deletion), antibody 30 minutes, then 100 ng/ml rhuHGF; FIGS. 4A, 6
Description: (§1) To examine the prolonged signaling in H226, H596, H358, or Rat 1A-Met stable clones, the cells were rinsed with PBS then serum-starved in RPMI or DMEM media containing 0.5% BSA, 2 mM glutamine, and penicillin/streptomycin for one hour. rhuHGF or the agonistic anti-Met monoclonal antibody, 3D6 (Genentech), was added to the serum-free media for 10 minutes. The monolayer of cells was then rinsed with PBS and incubated with serum-free media until their extraction at the indicated times. Cells were then rinsed once with PBS, lysed with 1×SDS sample buffer containing 1×DTT (Invitrogen), sonicated briefly, and boiled for 5 minutes. […] Boiled samples were analyzed by SDS-PAGE and immunoblotted with P-Met (Y1230/Y1234/Y1235, BioSource), P-Met (Y1234/Y1235), Met (DL-21), P-MAPK (E10, Cell Signaling), P-MAPK (Cell Signaling), P-Akt (587F11, Cell Signaling), or Akt (Cell Signaling). […] Proteins transferred onto nitrocellulose membranes were detected by infrared scan using Odyssey (LiCor) according to the manufacturer's recommended western blotting instructions followed by quantification. […] After 72 hrs, cell viability was measured using the Celltiter-Glo Luminescent Cell Viability Assay (Promega). Stimulation indices were determined by dividing the average cell viability units of HGF-stimulated cultures by the average cell viability units of unstimulated cultures. […]

H596 cells = assay: Growth inhibition assay (Celltiter-Glo cell viability, 72 hrs, HGF stimulation); assay type: cell-based, human; conditions: with or without 50 ng/ml rhuHGF, FIG. 4B
Description: as §1

B1: OA-5D5: known anti-c-met inhibitor; antibody of intact light chain, heavy chain and N-terminally truncated heavy chain comprising an Fc portion (antibody, V domains shown)
VH: EVQLVESGGGLVQPGGSLRLSCAASGYTFTSYWLHWVRQAPGKGLEWVGMIDPSNSDTRFNPNFKDRFTISADTSKNTAYLQMNSLRAEDTAVYYCATYRSYVTPLDYWGQGTLVTVSS
VL: DIQMTQSPSSLSASVGDRVTITCKSSQSLLYTSSQKNYLAWYQQKPGKAPKLLIYWASTRESGVPSRFSGSGSGTDFTLTISSLQPEDFATYYCQQYYAYPWTFGQGTKVEIK
modifications: constant regions; truncated heavy chain Fc; Sequence is synthesized
notes: antibody of intact light chain, heavy chain and N-terminally truncated heavy chain comprising an Fc portion
MAPK phosphorylation (Met receptor): decreased with the addition of anti-Met OA-5D5 in a dose-dependent manner
Met phosphorylation (Met receptor): decreased with the addition of anti-Met OA-5D5 in a dose-dependent manner
cell proliferation (cell viability) (H596 cells): dose-dependent inhibition of cell proliferation in a ligand-dependent manner
